Experiments:
Assay in all cases: controlled Fab-arm exchange read by hydrophobic interaction chromatography; equimolar parental antibodies, 1 mg/mL each, 75 mM 2-MEA, 5 h at 31 °C; 2-MEA removed, overnight at 4 °C for re-oxidation; percent bispecific product from HIC peak areas
[1] = target: IgG1-CH3(mmG2a)-T370K-K409R parental antibody (7D8-derived) (human | mouse)
[2] = target: IgG1-CH3(mmG2a)-K409R parental antibody with the R411T mutation (7D8-derived) (human | mouse)
[3] = target: mmIgG2b-K409R parental antibody (7D8-derived) (human | mouse)
Chain of mmIgG2b-K409R parental antibody (7D8-derived) (human | mouse) (heavy, as listed by the source, chain 1 of 2): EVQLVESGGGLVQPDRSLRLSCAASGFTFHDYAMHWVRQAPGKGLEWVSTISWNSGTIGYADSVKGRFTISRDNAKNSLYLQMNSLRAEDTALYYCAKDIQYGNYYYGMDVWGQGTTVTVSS
Chain of mmIgG2b-K409R parental antibody (7D8-derived) (human | mouse) (light, as listed by the source, chain 2 of 2): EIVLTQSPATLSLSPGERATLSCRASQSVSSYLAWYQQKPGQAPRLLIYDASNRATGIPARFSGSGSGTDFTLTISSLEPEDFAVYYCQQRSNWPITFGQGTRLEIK

Chain of IgG1-CH3(mmG2a)-T370K-K409R parental antibody (7D8-derived) (human | mouse) (heavy, as listed by the source, chain 1 of 2): as the sequence (heavy, as listed by the source, chain 1 of 2) above
Chain of IgG1-CH3(mmG2a)-T370K-K409R parental antibody (7D8-derived) (human | mouse) (light, as listed by the source, chain 2 of 2): as the sequence (light, as listed by the source, chain 2 of 2) above
Chain of IgG1-CH3(mmG2a)-K409R parental antibody with the R411T mutation (7D8-derived) (human | mouse) (heavy, as listed by the source, chain 1 of 2): as the sequence (heavy, as listed by the source, chain 1 of 2) above
Chain of IgG1-CH3(mmG2a)-K409R parental antibody with the R411T mutation (7D8-derived) (human | mouse) (light, as listed by the source, chain 2 of 2): as the sequence (light, as listed by the source, chain 2 of 2) above

Substance	cFAE efficiency (percent bispecific product by HIC) [1] [%]	cFAE efficiency (percent bispecific product by HIC) [2] [%]	cFAE efficiency (percent bispecific product by HIC) [3] [%]
IgG1-CH3(mmG2a)-F405L parental antibody (2F8-derived)	> 90	–	–
IgG1-CH3(mmG2a)-F405L parental antibody with the T370K mutation (2F8-derived)	76	–	–
IgG1-CH3(mmG2a)-F405L-R411T parental antibody (2F8-derived)	> 90	61	–
mmIgG2b-F405L parental antibody (2F8-derived)	–	–	80

From paper PMC5449386
